In patent US20140302063A1 (SECRETARY OF STATE FOR HEALTH, published 2014) one finds EC50 data, which are given here for 19 molecules.

What is called EC50 is the midpoint of the concentration-response curve. The low end stands for higher potency in that assay, the high end for lower potency in that assay.

Positions count from the first letter of the chain named.

The labels stand for the following.
B1: R1a-F5 (VHH)
VHH: QLQLVESGGGLVQVGGSLRLSCAASGFPFDGYAIAWFRQAPGKEREGVSCRASDGNTYYAESLKGRLTMSTDNAKNTVYLQMNSLKPEDTAVYYCAAASWVASLWSPSEYDYWGQGTQVTVSS
B2: R2a-E8 (VHH)
VHH: QLQLVESGGGLVQPGGSLRLSCTASGDIFVMYMIDWYRQAPGKQRELVASIDGRGTPMYADSVKGRFTISRDNAKNTVYLQMNSLKPEDTAVYSCHAKSPLVDNEYWGQGTQVTVSS
B3: R1a-B6 (VHH)
VHH: QVQLVESGGGLVQPGGSLRLSCAASGSFFSRYRMGWYRQAPGEQRELVASIAYDGSTSYADPVKGRFTISRDNANTVHLQMYSLKPDDTAVYYCNLDPPGILYWGQGTQVTVSS
B4: R1a-A5 (VHH)
VHH: QVQLVESGGGLVQPGGSLRLSCSASGSAVLFSTYPMSWYRQAPGKQRELVAAVTTDGSTSYADYAKGRFTISRDNAKNTVYLQMNSLKPEDTAVYYCNARDGFFNRYDYWGQGTQVTVSS
B5: R1a-C5 (VHH)
VHH: QVQLVESGGGLVQPGGSLRLSCAASNDIFSFYTMGWYLQAIGKQREPVAVIGNGGNTNYAESVKGRFTISRDGAKNTAYLQMNSLKPEDTAVYYCMASGPGGLNVWGQGTQVTVSS
B6: R1a-G5 (VHH)
VHH: QLQLVESGGGLVQPGGSLRLSCAASGSISRIVTMGWYRQASGKERELVAVIGNYGNTNYADSVKGRFTVSRDNAKDTAYLQMNGLNVEDTAIYYCKTSTTTPPYEYWGQGTQVTVSS
B7: R2b-D8 (VHH)
VHH: QVQLVESGGGLVQPGGSLRLSCAASGFTFSWYDVGWYRRAPGKERELVADIASTRGTTNYADSVKGRFTISRDNAKNSVYLQMNSLKPEDTAVYYCNTRRDWRDYWGQGIQVTVSS
B8: R2b-D9 (VHH)
VHH: QVQLVESGGGLVQPGGSLRLSCLASGSAFSLYTMGWYRQAPGNQRELVAAITSGESTNYADSVKGRFTISRDNAKNTVYLQMNSLKPEDTAVYYCNADPLSTGWGQYSYWGQGTQVTVSS
B9: R2a-G8 (VHH)
VHH: QLQLAESGGGLVQAGGSLRLSCAASGSTLNNNAIGWFRQAPGKEREGVSCMNSRDGTTNYADSVKGRFTISRDVAKNTVYLQMNSLKPEDTAVYFCAVKGFAPFLIGCPWGKAEYDYWGQGTQVTVSS
B10: R2b-E8 (VHH)
VHH: QVQLVESGGGLVQPGGSLRLSCAASGSFFSRYRMGWYRQAPGEQRELVAGITYDDSTNYAGSVKGRFTISRDNAKNTVHLQMNSLKPEDTAVYYCNLNPPGNLYWGQGTQVTVSS
B11: R2a-B9 (VHH)
VHH: QVQLVESGGGLVQPGGSLRLSCAASGSAFSINAMGWYRQAPGEEREFVAAITAGGNTYYADSAKARFTISRDNAKNMLYLQMNSLKPEDTAMYYCAATKAFGIATITADYELWGQGTQVTVSS
B12: R1a-E6 (VHH)
VHH: QVQLVESGGGLVQPGGSLRLSCAASGFTLGAYAIAWFRQAPGKEREGVSCISPSDSFTEYGDSVKGRFTVSRDNAKNTVYLQMNSLQPEDTAVYYCAADPVCTAGWYRPSRFDLWGQGTQVTVSS
B13: R2a-G9 (VHH)
VHH: QVQLVESGGGLVQPGGSLRLSCAASDNIFSFYTMGWYRQSPGKERELVAVIGNGGNTNYADSVKGRFTISRDNGKNKAHLQMNSLKPEDTAVYYCKASGPGGVEVWGQGTQVTVSS
B14: R1a-H6 (VHH)
VHH: QVQLVESGGGLVQAGDSLRLSCTASVLTFSLYRVGWFRQAPGKEREFVAAIDWGDGPTTYADSVKGRFTISRDNAERTAYLQINSLKPEDTAVYYCGAGNTGSSDRSSSYVHWGQGTQVTVSS
B15: R2a-F9 (VHH)
VHH: QVQLVESGGGLVQPGGSLRLSCSASGSISSIVTMGWYRQAPGKERELVAVIGNYGNTNYADSVKGRFTVSRDNAKNTVYLQMNSLNVEDTAMYVCKFSSTVAPHEYWGQGTQVTVSS
B16: R1a-F4 (VHH)
VHH: B6 VHH with L2V, A40G, S41P, G84N, I92M, T97C, Y104H, Y106F
B17: R1a-E5 (VHH)
VHH: QLQLVESGGGLVQPGGSLRLSCTASGFSLDNYAIGWFRRAPGEEREGVSFITSTSAVTKYADSVKGRFTISRDNAKNTVYLQMTSLKPEDTAVYYCAGTRWVPTMKADEYNYWGQGTQVTVSS
B18: R1a-G6 (VHH)
VHH: QVQLVESGGGLVQSGGSLRLSCAASGSMSRIITMGWYRQAPGMERELVAVIGNNDNTVYGDSVQGRFTVSRDNAKNTAYLQMNSLNAEDTAMYYCKISTLTPPHEYWGQGTQVTVSS
B19: R2a-H9 (VHH)
VHH: QVQLVESGGGLVQPGGSLRLSCAASTNIASFYTMGWYRQTPGQQRDVVAVIGNGGNTNYADSVKGRFTISRDGAKNTAHLQMNSLKPEDTDVYYCKASGPGGVILWGQGTQVTVSS

The first experiment has as its target A/Brisbane/59/2007 (H1N1-like) inactivated viral preparation (Influenza A virus A/Brisbane/59/2007 (H1N1-like)). The experiment in a line: ELISA, inactivated virus. Background: ELISA stands for enzyme-linked immunosorbent assay.
As for B1, the EC50 is 0.7 µg/mL.

In turn, B2 displayed an EC50 of 1.42 µg/mL. Consider B3, for which the EC50 was 0.58 µg/mL. On the same count and under the same terms, to B4 belongs 0.38 µg/mL; to B5, 3.3 µg/mL; to B6, 0.29 µg/mL. In turn, B7 gave an EC50 of 14.8 µg/mL. Molecule B8 registered an EC50 of 0.8 µg/mL. As to B9, the EC50 is 1.86 µg/mL.

For the molecule B10, the EC50 turned out to be 18.4 µg/mL.

The molecule B11 registered an EC50 of 9.84 µg/mL.

The next experiment concerns the target A/California/7/2009 (H1N1) inactivated viral preparation (Influenza A virus A/California/7/2009 (H1N1)). The experiment in a line: ELISA, inactivated virus.
As for B12, the EC50 is 2.46 µg/mL. The same measure, in the same setting: to B13 belongs 0.3 µg/mL; to B14, 3.85 µg/mL; to B1, 0.55 µg/mL. Regarding B2, the EC50 worked out at 0.51 µg/mL. Consider B3, for which the EC50 turned out to be 0.39 µg/mL.

The molecule B4 displayed an EC50 of 0.31 µg/mL. Consider B15, for which the EC50 is 0.19 µg/mL. On the same count and under the same terms, to B5 belongs 1.71 µg/mL. Molecule B6 registered an EC50 of 1.73 µg/mL. Still for that read-out and setting: the result for B16 reads 0.79 µg/mL. B17 yielded an EC50 of 3.23 µg/mL. The molecule B18 had an EC50 of 0.3 µg/mL. As to B8, the EC50 worked out at 0.9 µg/mL. The molecule B19 showed an EC50 of 0.97 µg/mL. Same read-out and setting: the result for B9 reads 4.11 µg/mL; that for B10, 3.64 µg/mL.

As to B11, the EC50 came to 1 µg/mL.
